From US20080050387A1 (published 2008) come the findings set out here.

B3: AR N-terminus, full length ARN (ARN1-556) (receptor)
chain: MEVQLGLGRVYPRPPSKTYRGAFQNLFQSVREVIQNPGPRHPEAASAAPPGASLLLLQQQQQQQQQQQQQQQQQQQQQETSPRQQQQQQGEDGSPQAHRRGPTGYLVLDEEQQPSQPQSALECHPERGCVPEPGAAVAASKGLPQQLPAPPDEDDSAAPSTLSLLGPTFPGLSSCSADLKDILSEASTMQLLQQQQQEAVSEGSSSGRAREASGAPTSSKDNYLGGTSTISDNAKELCKAVSVSMGLGVEALEHLSPGEQLRGDCMYAPLLGVPPAVRPTPCAPLAECKGSLLDDSAGKSTEDTAEYSPFKGGYTKGLEGESLGCSGSAAAGSSGTLELPSTLSLYKSGALDEAAAYQSRDYYNFPLALAGPPPPPPPPHPHARIKLENPLDYGSAWAAAAAQCRYGDLASLHGAGAAGPGSGSPSAAASSSWHTLFTAEEGQLYGPCGGGGGGGGGGGGGGGGGGGGGGGGEAGAVAPYGYTRPPQGLAGQESDFTAPDVWYPGGMVSRVPYPSPTCVKSEMGPWMDSYSGPYGDMRLETARDHVLPIDYYFPPQ
B7: ARA67/PAT1, full length (585 amino acids) (other)
chain: MAAVELEWIPETLYNTAISAVVDNYIRSRRDIRSLPENIQFDVYYKLYQQGRLCQLGSEFCELEVFAKVLRALDKRHLLHHCFQALMDHGVKVASVLAYSFSRRCSYIAESDAAVKEKAIQVGFVLGGFLSDAGWYSDAEKVFLSCLQLCTLHDEMLHWFRAVECCVRLLHVRNGNCKYHLGEETFKLAQTYMDKLSKHGQQANKAALYGELCALLFAKSHYDEAYKWCIEAMKEITAGLPVKVVVDVLRQASKACVVKREFKKAEQLIKHAVYLARDHFGSKHPKYSDTLLDYGFYLLNVDNICQSVAIYQAALDIRQSVFGGKNIHVATAHEDLAYSSYVHQYSSGKFDNALFHAERAIGIITHILPEDHLLLASSKRVKALILEEIAIDCHNKETEQRLLQEAHDLHLSSLQLAKKAFGEFNVQTAKHYGNLGRLYQSMRKFKEAEEMHIKAIQIKEQLLGQEDYEVALSVGHLASLYNYDMNQYENAEKLYLRSIAIGKKLFGEGYSGLEYDYRGLIKLYNSIGNYEKVFEYHNVLSNWNRLRDRQYSVTDALEDVSTSPQSTEEVVQSFLISQNVEGPSC
notes: Used as GST-ARA67 on beads, as [35S]methionine-labeled ARA67, as GAL4 DBD fusion (pM-ARA67) and as HA-ARA67 (pKH3) in COS-1 cells; also called ARA671-585; GST-ARA67

The target of one experiment is T1, AR DBD-LBD (human, UniProt P10275 557-920).
T1 construct: also called GAL4-DBD-AR-DBD-LBD; GAL4-AR-DBD-LBD
T1 sequence: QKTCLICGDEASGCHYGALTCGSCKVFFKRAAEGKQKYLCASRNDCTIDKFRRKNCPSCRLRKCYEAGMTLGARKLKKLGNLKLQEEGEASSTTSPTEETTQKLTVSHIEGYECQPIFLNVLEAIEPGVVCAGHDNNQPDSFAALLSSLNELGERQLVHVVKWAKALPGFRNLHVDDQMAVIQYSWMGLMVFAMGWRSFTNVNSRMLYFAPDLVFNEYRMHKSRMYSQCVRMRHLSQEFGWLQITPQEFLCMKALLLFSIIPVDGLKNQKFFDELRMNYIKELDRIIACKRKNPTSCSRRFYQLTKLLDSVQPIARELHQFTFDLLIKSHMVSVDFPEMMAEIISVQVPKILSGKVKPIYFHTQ
Nature of the experiment: yeast two-hybrid, liquid β-gal assay, bait GAL4 DBD-AR-DBD-LBD.

In experiment [1] the target is T2, VP16-AR containing the residues 37 to 919 (human, UniProt P10275 37-920).
T2 construct: also called pCMX-VP16-AR; full length AR fused to VP16
T2 sequence: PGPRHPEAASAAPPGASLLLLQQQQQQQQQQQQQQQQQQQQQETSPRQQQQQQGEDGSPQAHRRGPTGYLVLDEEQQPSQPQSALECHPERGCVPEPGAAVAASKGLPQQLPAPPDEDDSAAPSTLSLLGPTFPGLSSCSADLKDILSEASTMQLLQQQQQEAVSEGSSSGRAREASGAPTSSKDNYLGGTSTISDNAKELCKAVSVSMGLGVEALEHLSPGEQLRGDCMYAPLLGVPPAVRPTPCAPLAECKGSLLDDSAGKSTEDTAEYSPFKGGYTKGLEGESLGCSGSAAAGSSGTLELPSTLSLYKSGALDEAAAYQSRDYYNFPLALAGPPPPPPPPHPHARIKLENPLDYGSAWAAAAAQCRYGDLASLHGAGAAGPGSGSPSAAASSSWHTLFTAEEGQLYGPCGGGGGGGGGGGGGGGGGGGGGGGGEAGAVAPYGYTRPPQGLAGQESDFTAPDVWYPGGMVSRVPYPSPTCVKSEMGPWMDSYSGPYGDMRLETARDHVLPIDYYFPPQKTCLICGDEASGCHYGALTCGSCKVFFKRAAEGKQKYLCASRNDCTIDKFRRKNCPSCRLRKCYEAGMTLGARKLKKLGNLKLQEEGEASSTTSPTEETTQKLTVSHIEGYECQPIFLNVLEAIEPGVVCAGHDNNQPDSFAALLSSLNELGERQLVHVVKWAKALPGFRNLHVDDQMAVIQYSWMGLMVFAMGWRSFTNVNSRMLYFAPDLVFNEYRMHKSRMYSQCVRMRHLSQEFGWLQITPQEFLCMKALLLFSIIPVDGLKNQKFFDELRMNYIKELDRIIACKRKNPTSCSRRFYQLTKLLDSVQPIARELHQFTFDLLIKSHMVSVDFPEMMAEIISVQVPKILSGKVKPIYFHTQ
Kind of experiment: mammalian two-hybrid in PC-3 cells, GAL4 DBD-N-hRad9 + VP16-AR, 10 nM DHT.

For experiment [2], the target named is B7. Nature of the experiment: mammalian two-hybrid in H1299 cells, pM-ARA67 + pVP16-ARN, pG5-Luc.
Experiment [3] concerns the target T2, VP16-AR containing the residues 37 to …. Nature of the experiment: mammalian two-hybrid in PC-3 cells, GAL4 DBD-hRad9 constructs + VP16-AR, 10 nM DHT.
For experiment [4], the target named is B3. Kind of experiment: GST pull-down: GST-ARA67 fragments with 35S-labeled ARN.
Experiment [5] deals with T3, androgen receptor (AR), full length (human, UniProt P10275 1-920).
T3 construct: also called AR-FL; pCMV-AR
T3 sequence: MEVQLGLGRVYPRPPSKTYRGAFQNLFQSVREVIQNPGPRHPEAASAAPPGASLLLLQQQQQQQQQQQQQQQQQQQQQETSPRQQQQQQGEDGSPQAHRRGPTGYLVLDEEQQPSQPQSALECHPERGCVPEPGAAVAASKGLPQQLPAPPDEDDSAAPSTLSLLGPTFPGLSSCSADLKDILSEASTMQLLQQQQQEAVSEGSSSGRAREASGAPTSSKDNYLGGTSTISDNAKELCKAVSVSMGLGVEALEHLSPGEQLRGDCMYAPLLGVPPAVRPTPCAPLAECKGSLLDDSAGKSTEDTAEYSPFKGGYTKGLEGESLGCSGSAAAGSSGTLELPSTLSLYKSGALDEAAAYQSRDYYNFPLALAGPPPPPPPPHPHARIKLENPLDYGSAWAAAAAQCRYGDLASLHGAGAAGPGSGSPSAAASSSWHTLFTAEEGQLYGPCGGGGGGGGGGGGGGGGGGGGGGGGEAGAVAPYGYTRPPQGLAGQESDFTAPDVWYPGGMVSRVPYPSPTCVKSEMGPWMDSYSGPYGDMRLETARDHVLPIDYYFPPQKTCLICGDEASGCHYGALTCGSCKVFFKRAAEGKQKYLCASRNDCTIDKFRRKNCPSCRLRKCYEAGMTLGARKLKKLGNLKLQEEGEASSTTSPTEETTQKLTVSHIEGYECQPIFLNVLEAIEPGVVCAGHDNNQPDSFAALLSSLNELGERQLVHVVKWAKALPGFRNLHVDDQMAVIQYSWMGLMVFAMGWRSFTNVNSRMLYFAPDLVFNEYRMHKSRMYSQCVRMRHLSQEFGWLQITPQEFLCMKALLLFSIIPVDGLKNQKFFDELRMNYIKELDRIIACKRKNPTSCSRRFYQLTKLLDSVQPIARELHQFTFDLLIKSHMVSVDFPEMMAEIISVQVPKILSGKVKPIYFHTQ
Kind of experiment: GST pull-down: GST-ARA67 with 35S-labeled AR, with or without 10 uM DHT.
Description: Pulled-down proteins were separated on SDS-PAGE and visualized by autoradiography. […] After transfection cells were treated with or without 10 nM DHT for 24 h before harvesting. 500 μg total cell lysate proteins from each samples were immunoprecipitated with anti-AR antibody for Western blot analysis with anti-AR and anti-HA antibody (Roche).
The immunoprecipitates were analyzed by Western blotting.

Description for AR DBD-LBD: Liquid β-gal assay was performed as described previously.
In order to screen proteins with ligand-dependent interaction with AR, the human AR DBD-LBD was fused with the DBD of GAL4 functioned as bait in yeast two-hybrid screening (FIG. 23A). A pretransformed normal human ovary cDNA library was screened in the presence of 10 nM DHT.

B1: GAL4 activation domain alone (other, UniProt P04386 768-881, looked up)
chain: ANFNQSGNIADSSLSFTFTNSSNGPNLITTQTNSQALSQPIASSNVHDNFMNNEITASKIDDGNNSKPLSPGWTDQTAYNAFGITTGMFNTTTMDDVYNYLFDDEDTPPNPKKE
notes: Negative control; also called GAL4-AD
Regarding B1, in the experiment with AR DBD-LBD, the binding result is “no binding”.

B2: PCNA-like domain of hRad9 (N-hRad9, aa 1-270) (other)
chain: MKCLVTGGNVKVLGKAVHSLSRIGDELYLEPLEDGLSLRTVNSSRSAYACFLFAPLFFQQYQAATPGQDLLRCKILMKSFLSVFRSLAMLEKTVEKCCISLNGRSSRLVVQLHCKFGVRKTHNLSFQDCESLQAVFDPASCPHMLRAPARVLGEAVLPFSPALAEVTLGIGRGRRVILRSYHEEEADSTAKAMVTEMCLGEEDFQQLQAQEGVAITFCLKEFRGLLSFAESANLNLSIHFDAPGRPAIFTIKDSLLDGHFVLATLSDTDS
notes: GAL4 DBD fusion (pM) in the two-hybrid assay; Flag-tagged (pCDNA3-Flag) in the AR N/C assay; also called N-terminus of hRad9
For B2, in experiment [1], the binding result was “no binding”. As to B3, in experiment [2], the binding result is given as “binds”.

B4: C-terminus of hRad9 (aa 269-391) (other)
chain: DSHSQDLGSPERHQPVPQLQAHSTPHPDDFANDDIDSYMIAMETTIGNEGSRVLPSISLSPGPQPPKSPGPHSEEEDEAEPSTVPGTPPPKKFRSLFFGSILAPVRSPQGPSPVLAEDSEGEG
notes: GAL4 DBD fusion (pM) in the two-hybrid assay; Flag-tagged (pCDNA3-Flag) in the AR N/C assay; also called C-hRad9; hRad9 C-terminus
Turning to B4, the binding result in experiment [3] was “binds”.

B5: ARA67 8-140 (other)
chain: WIPETLYNTAISAVVDNYIRSRRDIRSLPENIQFDVYYKLYQQGRLCQLGSEFCELEVFAKVLRALDKRHLLHHCFQALMDHGVKVASVLAYSFSRRCSYIAESDAAVKEKAIQVGFVLGGFLSDAGWYSDAE
notes: GST fusion on beads
As to B5, the binding result in experiment [4] is listed as “binds”.

B6: ARA67 281-550 (other)
chain: GSKHPKYSDTLLDYGFYLLNVDNICQSVAIYQAALDIRQSVFGGKNIHVATAHEDLAYSSYVHQYSSGKFDNALFHAERAIGIITHILPEDHLLLASSKRVKALILEEIAIDCHNKETEQRLLQEAHDLHLSSLQLAKKAFGEFNVQTAKHYGNLGRLYQSMRKFKEAEEMHIKAIQIKEQLLGQEDYEVALSVGHLASLYNYDMNQYENAEKLYLRSIAIGKKLFGEGYSGLEYDYRGLIKLYNSIGNYEKVFEYHNVLSNWNRLRDRQ
notes: GST fusion on beads
Take B6: the binding result in experiment [4] is “binds”. As for B7, in experiment [5], the binding result was “binds”.
